B1: 5KPH (parent)
chain: EEKRQVKQVAKEKLLEQSPNSKVQVRRVQKQGNTIRVELELRTNGKKENYTVEVERQGNTWTVKRITRT

Variants of: B1
Experiment: folding stability dG (cDNA display proteolysis); higher = more stable
Conditions: PBS, room temperature

Variant | folding stability dG
EEKRQVKQVAKEKLLEQSPNSKVQVRRVQKQGNTIRVELELRTNGKKENYTVEVERQGSTWTVKRITRT [N59S] | 3.62 kcal/mol
EEKRQVKQVAKEKLLEQSPNSKVQVRRVQKQGNTIRVELELRTNGKKENYTVEVERQSNTWTVKRITRT [G58S] | 3.36 kcal/mol
EEKRQVKQVAKEKLLEQSPNSKVQVRRVQKQGNTIRVELELRTNGKKENYTVEVERQNNTWTVKRITRT [G58N] | 3.7 kcal/mol
EEKRQVKQVAKEKLLEQSPNSKVQVRRVQKQGNTIRVELELRTNGKKENYTVEVERQWNTWTVKRITRT [G58W] | 3 kcal/mol
EEKRQVKQVAKEKLLEQSPNSKVQVRRVQKQGNTIRVELELRTNGKKENYTVEVERQANTWTVKRITRT [G58A] | 3.33 kcal/mol
EEKRQVKQVAKEKLLEQSPNSKVQVRRVQKQGNTIRVELELRTNGKKENYTVEVERQFNTWTVKRITRT [G58F] | 3.43 kcal/mol
EEKRQVKQVAKEKLLEQSPNSKVQVRRVQKQGNTIRVELELRTNGKKENYTVEVERQQNTWTVKRITRT [G58Q] | 3.5 kcal/mol
EEKRQVKQVAKEKLLEQSPNSKVQVRRVQKQGNTIRVELELRTNGKKENYTVEVERQRNTWTVKRITRT [G58R] | 2.97 kcal/mol
EEKRQVKQVAKEKLLEQSPNSKVQVRRVQKQGNTIRVELELRTNGKKENYTVEVERQYNTWTVKRITRT [G58Y] | 3.15 kcal/mol
EEKRQVKQVAKEKLLEQSPNSKVQVRRVQKQGNTIRVELELRTNGKKENYTVEVERQTNTWTVKRITRT [G58T] | 2.84 kcal/mol
EEKRQVKQVAKEKLLEQSPNSKVQVRRVQKQGNTIRVELELRTNGKKENYTVEVERQLNTWTVKRITRT [G58L] | 3.33 kcal/mol
EEKRQVKQVAKEKLLEQSPNSKVQVRRVQKQGNTIRVELELRTNGKKENYTVEVERQHNTWTVKRITRT [G58H] | 3.4 kcal/mol
EEKRQVKQVAKEKLLEQSPNSKVQVRRVQKQGNTIRVELELRTNGKKENYTVEVERQPNTWTVKRITRT [G58P] | 2.25 kcal/mol
EEKRQVKQVAKEKLLEQSPNSKVQVRRVQKQGNTIRVELELRTNGKKENYTVEVERQINTWTVKRITRT [G58I] | 2.86 kcal/mol
EEKRQVKQVAKEKLLEQSPNSKVQVRRVQKQGNTIRVELELRTNGKKENYTVEVERQDNTWTVKRITRT [G58D] | 3.75 kcal/mol
EEKRQVKQVAKEKLLEQSPNSKVQVRRVQKQGNTIRVELELRTNGKKENYTVEVERQMNTWTVKRITRT [G58M] | 3.24 kcal/mol
EEKRQVKQVAKEKLLEQSPNSKVQVRRVQKQGNTIRVELELRTNGKKENYTVEVERQKNTWTVKRITRT [G58K] | 3.4 kcal/mol
EEKRQVKQVAKEKLLEQSPNSKVQVRRVQKQGNTIRVELELRTNGKKENYTVEVERQVNTWTVKRITRT [G58V] | 3.02 kcal/mol
EEKRQVKQVAKEKLLEQSPNSKVQVRRVQKQGNTIRVELELRTNGKKENYTVEVERQENTWTVKRITRT [G58E] | 3.7 kcal/mol
EEKRQVKQVAKEKLLEQSPNSKVQVRRVQKQGNTIRVELELRTNGKKENYTVEVERQCNTWTVKRITRT [G58C] | 3.16 kcal/mol

Variant | folding stability dG
EEKRQVKQVAKEKLLEQSPNSKVQVRRVQKQGNTIRVELELRTNGKKENYTVEVERQGNSWTVKRITRT [T60S] | 4.13 kcal/mol
EEKRQVKQVAKEKLLEQSPNSKVQVRRVQKQGNTIRVELELRTNGKKENYTVEVERQGNQWTVKRITRT [T60Q] | 4.23 kcal/mol
EEKRQVKQVAKEKLLEQSPNSKVQVRRVQKQGNTIRVELELRTNGKKENYTVEVERQGNRWTVKRITRT [T60R] | 3.97 kcal/mol
EEKRQVKQVAKEKLLEQSPNSKVQVRRVQKQGNTIRVELELRTNGKKENYTVEVERQGNYWTVKRITRT [T60Y] | 3.79 kcal/mol
EEKRQVKQVAKEKLLEQSPNSKVQVRRVQKQGNTIRVELELRTNGKKENYTVEVERQGNMWTVKRITRT [T60M] | 4 kcal/mol
EEKRQVKQVAKEKLLEQSPNSKVQVRRVQKQGNTIRVELELRTNGKKENYTVEVERQGNLWTVKRITRT [T60L] | 3.63 kcal/mol
EEKRQVKQVAKEKLLEQSPNSKVQVRRVQKQGNTIRVELELRTNGKKENYTVEVERQGNEWTVKRITRT [T60E] | 4.16 kcal/mol
EEKRQVKQVAKEKLLEQSPNSKVQVRRVQKQGNTIRVELELRTNGKKENYTVEVERQGNVWTVKRITRT [T60V] | 4.01 kcal/mol
EEKRQVKQVAKEKLLEQSPNSKVQVRRVQKQGNTIRVELELRTNGKKENYTVEVERQGNAWTVKRITRT [T60A] | 3.83 kcal/mol
EEKRQVKQVAKEKLLEQSPNSKVQVRRVQKQGNTIRVELELRTNGKKENYTVEVERQGNIWTVKRITRT [T60I] | 4.11 kcal/mol
EEKRQVKQVAKEKLLEQSPNSKVQVRRVQKQGNTIRVELELRTNGKKENYTVEVERQGNDWTVKRITRT [T60D] | 3.77 kcal/mol
EEKRQVKQVAKEKLLEQSPNSKVQVRRVQKQGNTIRVELELRTNGKKENYTVEVERQGNFWTVKRITRT [T60F] | 3.96 kcal/mol
EEKRQVKQVAKEKLLEQSPNSKVQVRRVQKQGNTIRVELELRTNGKKENYTVEVERQGNCWTVKRITRT [T60C] | 3.33 kcal/mol
EEKRQVKQVAKEKLLEQSPNSKVQVRRVQKQGNTIRVELELRTNGKKENYTVEVERQGNWWTVKRITRT [T60W] | 4.16 kcal/mol
EEKRQVKQVAKEKLLEQSPNSKVQVRRVQKQGNTIRVELELRTNGKKENYTVEVERQGNPWTVKRITRT [T60P] | 1.45 kcal/mol
EEKRQVKQVAKEKLLEQSPNSKVQVRRVQKQGNTIRVELELRTNGKKENYTVEVERQGNNWTVKRITRT [T60N] | 4.07 kcal/mol
EEKRQVKQVAKEKLLEQSPNSKVQVRRVQKQGNTIRVELELRTNGKKENYTVEVERQGNKWTVKRITRT [T60K] | 3.99 kcal/mol
EEKRQVKQVAKEKLLEQSPNSKVQVRRVQKQGNTIRVELELRTNGKKENYTVEVERQGNHWTVKRITRT [T60H] | 4.02 kcal/mol
EEKRQVKQVAKEKLLEQSPNSKVQVRRVQKQGNTIRVELELRTNGKKENYTVEVERQGNGWTVKRITRT [T60G] | 4.12 kcal/mol

— the MegaScale stability set (Tsuboyama et al. 2023)
